From article PMC11362306 come the findings set out here.

The target in this assay is BLIP2 with azF at residue 41 (BLIP2^41azF). In words: CNT-FET conductance (I-V); BLIP2 azF variant photochemically attached to p-type SWCNTs of a CNT-FET; BL (or BSA) added in DPBS, to 1.4 μM or stepwise; I-V curves, room temperature; also with 0.5% (w/v) BSA for TEM-1 on BLIP2^213azF.

Take “TEM-1 β-lactamase (from UniProt P62593 24-286) (enzyme)”: the conductance increase, fold lower than on BLIP2^213azF devices turned out to be 4 fold.
